Measured values as given in patent US20240165209A1, “PLACENTAL ALKALINE PHOSPHATASE FOR REDUCING THE LOSS OF RED BLOOD CELLS, WHITE BLOOD CELLS, AND PLATELETS IN CHEMOTHERAPY TREATED CANCER PATIENTS” (ZOLTAN LABORATORIES, LLC, priority 2021, published 2024).

What was measured:
bone marrow MSCs = assay: DNA synthesis ([3H]thymidine incorporation) in MSCs; assay type: cell-based, human; conditions: 20 hours
Description: For the experiment, bone marrow aspirates were taken from normal human adult donors after informed consent. For the preparation of bone marrow MSCs, essentially a widely used technique was used as described earlier by others [Pittenger, M. F., Mackay, A. M., Beck, S. C., et al. (1999) Multilineage potential of adult human mesenchymal stem cells. Science 284, 143-147]. Briefly, nucleated cells were isolated with a pre-prepared commercial density gradient (Lymphoprep, Nycomed, Pharma, Oslo, Norway) and re-suspended in Dulbecco's modified Eagle's medium (DMEM) (GIBCO, Grand Island, NY) supplemented with 10% fetal calf serum (FCS), 50 U/ml of penicillin, and 50 μg/ml of streptomycin (GIBCO). All nucleated cells were plated in 25-cm^2 flasks (BD Falcon, Bedford, MA) at 37° C. in humidified atmosphere containing 5% CO2. After 24 hours, non-adherent cells were removed and cryopreserved in liquid nitrogen until use. The remaining adherent cells were thoroughly washed with Hanks balanced salt solution (HBSS) (GIBCO). Fresh complete culture medium was added and replaced every 3 or 4 days (twice a week). When cells grew to about 80% confluence, they were suspended and harvested by incubating with a ready-made solution containing 0.25% trypsin and 1 mM EDTA (Sigma-Aldrich, St. Louis, MO) for 5 minutes at 37° C.; this cell suspension is designated as passage 1. These cells were further expanded with 1:3-1:5 splitting in 175-cm^2 flasks (BD Falcon). For the determination of DNA synthesis, cells were divided into 12-well plates in the complete medium and let the cells grow to about 60% confluence. After changing the spent medium for fresh complete medium (i.e., containing 10% fetal calf serum), cells were treated for 20 hours with 20-100 μM ATP and/or 200 nM PLAP as well as 50-200 μM Cyp in the absence or presence of 200 nM PLAP. For labeling newly formed DNA, cells received 1,130,000 d.p.m. [^3H] thymidine for the last 4 hours of the treatment period. DNA synthesis was determined as described earlier [She, Q.-B., Mukherjee, J. J., Huang, J.-S., Crilly, K. S. and Kiss, Z. (2000) Growth factor-like effects of placental alkaline phosphatase in human fetus and mouse embryo fibroblasts. FEBS Lett. 469, 163-167]. The data is expressed as d.p.m. [^3H] thymidine incorporated into DNA/well (n=3).

[1] = amifostine treatment, intravenous route, cancer patients; cited from earlier work
[2] = purified PLAP; cited from earlier work
[3] = tested on: mouse bone marrow-derived hematopoietic stem cells (HSCs); conditions: 3 days
Procedure: Bone marrow was harvested by flushing bones from female C57/BL/6 mice in Fischer medium (Thermo Fisher Scientific; catalogue no. 21475025) containing 20% horse serum (Hyclone, Logan, UT), 100 Unit/ml penicillin, […] streptomycin (Gibco, BRL), 0.015 fungizone (Gibco, BRL), and 0.1 μM hydrocortisone sodium succinate (SynoPharm; Hamburg, Germany). Pooled stem cells were seeded into 25 cm 3 flasks (10 ml cell suspension) and after 3 days of incubation at 33° C. in 5% CO2 in air in the absence of PLAP, they were plated into 12-well plates and were incubated in the absence (n=8) or presence of 50 μg/ml PLAP (n=8) for additional 3 days.
In a follow up experiment with hematopoietic stem cells, the same incubation medium in 12-well plates contained either no other addition (n=8) or contained 200 μM Cyp without (n=8) or with 50 μg/ml PLAP (n=8) for 3 days.

[4] = Spectrophotometric assay of PLAP enzyme activity (hydrolysis of 4-nitrophenylphosphate); assay type: biochemical; conditions: 22° C., pH 9.8, 10 mM 4-nitrophenylphosphate
Description: Human PLAP (Type XXIV, 1020 units of total activity) in a partially purified form was obtained commercially from Sigma-Aldrich. A butanol extraction of placental tissue performed by Sigma-Aldrich to obtain the partially purified material was followed by chromatography steps as described in [Chang, T.-C., Huang, S.-M, Huang, T.-M. and Chang, G.-G. Human placental alkaline phosphatase: An improved purification procedure and kinetic studies. Eur. J. Biochem. 209, 241-247, 1992] to obtain an essentially pure preparation of PLAP as determined by sodium dodecyl sulfate-polyacrylamide gel electrophoresis (SDS-PAGE). The enzyme activity of PLAP was assayed using a spectroscopic method to monitor the hydrolysis of 4-nitrophenylphosphate (as an increase in absorbance at 410 nm) at room temperature (22° C.) as described in [Chang, G.-G., Shiao, M.-S., Lee, K.-R. and Wu, J.-J., Modification of human placental alkaline phosphatase by periodate-oxidized 1,N6-ethenoadenosine monophosphate. Biochem. J., 272, 683-690, 1990]. Activity analysis of 5-10-μg purified enzyme was performed in 1 mL incubation volume containing 50 mM Na2CO3/NaHCO3, 10 mM MgCl2, 10 mM 4-nitrophenylphosphate at pH 9.8. The extinction coefficient of 4-nitrophenol was taken as 1.62×10^4 M^−1 cm^−1. An enzyme activity of 1 U (unit) is defined as 1 μmole substrate hydrolyzed per 1 min at 22° C. at pH 9.8. […]

## Nc1ncnc2c1ncn2[C@@H]1O[C@H](COP(=O)(O)OP(=O)(O)OP(=O)(O)O)[C@@H](O)[C@H]1O [ATP]
Bone marrow MSCs; ATP 20 μM, no PLAP
  d.p.m. [^3H] thymidine incorporated into DNA/well: 70,738 ± 1,367 d.p.m.
Bone marrow MSCs; ATP 50 μM, no PLAP
  d.p.m. [^3H] thymidine incorporated into DNA/well: 55,808 ± 1,480 d.p.m.
Bone marrow MSCs; ATP 100 μM, no PLAP
  d.p.m. [^3H] thymidine incorporated into DNA/well: 38,601 ± 1,940 d.p.m.

## NCCCNCCSP(=O)(O)O [amifostine]
[1]
  patients with reversible clinical hypotension, protracted nausea and vomiting: 15-20%

B1: PLAP: highly purified native placental alkaline phosphatase derived from human placenta via conventional purification methods (protein, UniProt P05187 23-506, looked up)
Alkaline phosphatase, …: IIPVEEENPDFWNREAAEALGAAKKLQPAQTAAKNLIIFLGDGMGVSTVTAARILKGQKKDKLGPEIPLAMDRFPYVALSKTYNVDKHVPDSGATATAYLCGVKGNFQTIGLSAAARFNQCNTTRGNEVISVMNRAKKAGKSVGVVTTTRVQHASPAGTYAHTVNRNWYSDADVPASARQEGCQDIATQLISNMDIDVILGGGRKYMFRMGTPDPEYPDDYSQGGTRLDGKNLVQEWLAKRQGARYVWNRTELMQASLDPSVTHLMGLFEPGDMKYEIHRDSTLDPSLMEMTEAALRLLSRNPRGFFLFVEGGRIDHGHHESRAYRALTETIMFDDAIERAGQLTSEEDTLSLVTADHSHVFSFGGYPLRGSSIFGLAPGKARDRKAYTVLLYGNGPGYVLKDGARPDVTESESGSPEYRQQSAVPLDEETHAGEDVAVFARGPQAHLVHGVQEQTFIAHVMAFAACLEPYTACDLAPPAGTTD
Bone marrow MSCs; PLAP 200 nM + ATP 20 μM
  d.p.m. [^3H] thymidine incorporated into DNA/well: 90,708 ± 2,518 d.p.m.
Bone marrow MSCs; PLAP 200 nM + ATP 50 μM
  d.p.m. [^3H] thymidine incorporated into DNA/well: 84,740 ± 3,231 d.p.m.
Bone marrow MSCs; PLAP 200 nM + ATP 100 μM
  d.p.m. [^3H] thymidine incorporated into DNA/well: 80,916 ± 2,252 d.p.m.
Bone marrow MSCs; PLAP 200 nM + Cyp 50 μM
  d.p.m. [^3H] thymidine incorporated into DNA/well: 81,887 ± 3,173 d.p.m.
Bone marrow MSCs; PLAP 200 nM + Cyp 200 μM
  d.p.m. [^3H] thymidine incorporated into DNA/well: 74,798 ± 2,408 d.p.m.
Bone marrow MSCs; PLAP 200 nM, no ATP
  d.p.m. [^3H] thymidine incorporated into DNA/well: 89,865 ± 2,021 d.p.m.
[2]
  half-life time in human circulation: about 7 days
[3]; 50 μg/ml PLAP, no Cyp
  change of the number of hematopoietic stem cells: did not significantly change
[3]; 200 μM Cyp, presence of 50 μg/ml PLAP
  decrease of the number of cells by Cyp: 10%
[4]
  specific activity of purified PLAP: 685 Units per mg protein
